According to US20200407673A1, “DEVICE, KIT AND METHOD FOR THREE-DIMENSIONAL CELL CULTURE” (RIGENERAND S.R.L., priority 2018, published 2020):

System: luciferase positive tumor cells
Test: efficacy of sTRAIL on luciferase-positive tumor cells grown in the three-dimensional culture device, luciferin light signal
Assay type: cell-based
Conditions: cells grown 72 hours in the device, then 24 hours of treatment; luciferin substrate, luminometer
Method: In the culture device 1 the tumor cells “C” which are luciferase-positive are grown for 72 hours and it is possible to monitor the extent of the growth and estimate the number of tumor cells “C” grown inside the culture device 1 by adding the luciferin substrate and detecting the light signal, as shown in the diagram in FIG. 20.
The effectiveness of the sTRAIL biological agent, which is added to the culture medium and is loaded inside the culture device 1, is tested on the tumor mass inside the culture device 1 evaluated at 72 hours.
The efficacy of the treatment is determined after 24 hours by adding the luciferin substrate which is metabolized by the viable tumor cells “C” by the action of the luciferase.
Since the cells “C” that are dead or in apoptosis no longer produce the enzyme, they cannot metabolize the substrate and, consequently, they are no longer able to generate a light signal.

B1: sTRAIL: soluble TNF-related antitumor biological agent apoptosis-inducing ligand; biological cytotoxic agent (protein, UniProt P50591 39-281, looked up)
extracellular domain: TNELKQMQDKYSKSGIACFLKEDDSYWDPNDEESMNSPCWQVKWQLRQLVRKMILRTSEETISTVQEKQQNISPLVRERGPQRVAAHITGTRGRSNTLSSPNSKNEKALGRKINSWESSRSGHSFLSNLHLRNGELVIHEKGFYYIYSQTYFRFQEEIKENTKNDKQMVQYIYKYTSYPDPILLMKSARNSCWSKDAEYGLYSIYQGGIFELKENDRIFVSVTNEHLIDMDHEASFFGAFLVG
modifications: extracellular domain soluble form
Q: With B1 as the molecule, how does the “light signal (RLUs, proportional to viable cells) after treatment” value read?
A: The value was “light signal is reduced in intensity”.
